For the assay, the target named is EGFR-AP fusion protein (UniProt P00533). Briefly: SPR (BIAcore), EGFR-AP immobilized, antibody 1.5 nM to 100 nM.

Chain of IMC-11F8 Fab (VH): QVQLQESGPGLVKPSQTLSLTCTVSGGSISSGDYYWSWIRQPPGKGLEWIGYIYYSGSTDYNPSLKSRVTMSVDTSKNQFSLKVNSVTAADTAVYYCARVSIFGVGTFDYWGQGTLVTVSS
Chain of IMC-11F8 Fab (VL): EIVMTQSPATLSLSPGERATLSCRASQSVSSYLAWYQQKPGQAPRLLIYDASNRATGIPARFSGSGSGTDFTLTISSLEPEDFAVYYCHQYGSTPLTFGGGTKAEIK

In general, Kd refers to a measure of binding affinity in units of concentration. A higher Kd goes with a looser complex. As a reminder, the koff is the rate constant with which the complex falls apart. A low value points to a long-lived complex. As a reminder, the kon is the second-order rate constant of association. Lower therefore signals slow association. On to IMC-11F8 Fab, for which the Kd was 1.78 nM, the off-rate constant (koff) worked out at 0.00367 s⁻¹ and the kon stood at 2.29e+06 M⁻¹ s⁻¹.
